{"source": "paper PMC6359508", "origin": "cited, not measured here", "target": "actin microfilament (UniProt P68133)", "data": [{"substance": "V-ATPase B subunit (from UniProt P21281)", "values": [{"measurement": "Kd", "value": 150, "unit": "nM"}]}]}
